± gives the standard deviation.

This data set is described as follows: protein stability index of a GFP-peptide fusion (GPS, HEK-293T) (PSI 1-6); higher = more stable. To be noted: c terminus: a fixed tail appended.
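Note: 24-mer peptide tiles fused after GFP, lentivirally expressed, FACS-sorted into six equal bins by GFP/DsRed ratio, decoded by Illumina sequencing, PSI is the read-weighted mean bin number.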

On to PLPGKAFLRQLPFRGDDGIFDDNF [SNX3], for which the protein stability index was determined as 3.47 ± 0.23 (treatment: DMSO) and 3.41 ± 0.47 (treatment: MLN4924 1 uM, 8 h).

In the case of PNTYYEGGYFKARLKFPIDYPYSP [CDC34], the protein stability index runs as follows: (treatment: DMSO) 2.32 ± 0.17; (treatment: MLN4924 1 uM, 8 h) 2.39 ± 0.21.

With PNVIEYYENFLEDKALMIAMEYAP [NEK8], the protein stability index reads like this: (treatment: DMSO) 2.32 ± 0.21; (treatment: MLN4924 1 uM, 8 h) 2.25 ± 0.21.

For the sequence PPGGSGSEPYKLLPGAVATIVKPL [HNF4A], the protein stability index amounted to 3.59 ± 0.11 (treatment: DMSO) and 3.58 ± 0.18 (treatment: MLN4924 1 uM, 8 h).

PPPPPNEINPPPHTMEEEEDDDWG [EIF5]: the protein stability index reads like this: (treatment: DMSO) 5.48 ± 0.17; (treatment: MLN4924 1 uM, 8 h) 5.61 ± 0.22.

On to PPRIPQADQWKSSNKSLVEALGLE [RHOBTB1], for which the protein stability index reads like this: (treatment: DMSO) 4.45 ± 0.27; (treatment: MLN4924 1 uM, 8 h) 4.33 ± 0.26.

Turning to PPSSGNGPAPPPLPPALVPAGGLA [WAS], the protein stability index is, setting by setting: (treatment: DMSO) 4.66 ± 0.47; (treatment: MLN4924 1 uM, 8 h) 4.67 ± 0.29.

Regarding PPVWYLKEEDHYQRARKEREKEDY [RHOBTB2], the protein stability index is, setting by setting: (treatment: DMSO) 5.16 ± 0.12; (treatment: MLN4924 1 uM, 8 h) 5.22 ± 0.16.

Take PRASISHVTCVDQSEHTMVLRCQL [C2CD2L]: the protein stability index by setting is: (treatment: DMSO) 2.34 ± 0.26; (treatment: MLN4924 1 uM, 8 h) 2.26 ± 0.28.

Consider PRIWSLAHTATASAVEGAPPARPR [IRX6], for which the protein stability index worked out at 4.44 ± 0.26 (treatment: DMSO) and 4.43 ± 0.11 (treatment: MLN4924 1 uM, 8 h).

Regarding PRPRRAKRFASLSRFVETLVVADD [ADAMTS4], the protein stability index reads like this: (treatment: DMSO) 3.65 ± 0.45; (treatment: MLN4924 1 uM, 8 h) 3.69 ± 0.12.

With PSGSLENGTKADGKDAKTTNGHGG [TRIM29], the protein stability index turned out to be 5.26 ± 0.45 (treatment: DMSO) and 5.58 ± 0.35 (treatment: MLN4924 1 uM, 8 h).

Take PSRREPPPRRSRSRSHDRLPYQRR [CLK3]: the protein stability index is, setting by setting: (treatment: DMSO) 5.23 ± 0.19; (treatment: MLN4924 1 uM, 8 h) 5.23 ± 0.14.

On to PSSSGHLADSDTLSSAEENEPSQA [C18orf25], for which the protein stability index is, setting by setting: (treatment: DMSO) 5.56 ± 0.22; (treatment: MLN4924 1 uM, 8 h) 5.52 ± 0.11.

As to PSVKYLSHPRVQSGCDKEALLTGG [RNF180], the protein stability index stood at 3.99 ± 0.28 (treatment: DMSO) and 4.04 ± 0.29 (treatment: MLN4924 1 uM, 8 h).

Sequence PVPPGWNPNSSSGKGSGGNAGSYI [DLX1] returned a protein stability index (treatment: DMSO) of 3.86 ± 0.21 and a protein stability index (treatment: MLN4924 1 uM, 8 h) of 3.93 ± 0.24.

Turning to PYFRAMFTGELAESRQTEVVIRDI [KLHL20], the protein stability index reads like this: (treatment: DMSO) 2.77 ± 0.25; (treatment: MLN4924 1 uM, 8 h) 3.09 ± 0.19.

PYKREEEALEERRLSRGEIPTLQR [PKD2L1]: the protein stability index came to 4.76 ± 0.31 (treatment: DMSO) and 4.82 ± 0.27 (treatment: MLN4924 1 uM, 8 h).

With QAAVAAGDVHTVRKMLEQGYSPNG [ASB7], the protein stability index came out at 4.09 ± 0.31 (treatment: DMSO) and 4.11 ± 0.12 (treatment: MLN4924 1 uM, 8 h).

As for QALRENTYPFLAMIMLKDRRMTVV [FAF2], the protein stability index (treatment: DMSO) came to 2.23 ± 0.31 and the protein stability index (treatment: MLN4924 1 uM, 8 h) worked out at 1.96 ± 0.21.

With QAPPADFIPAHVAFDKKVLKFDAY [EFHC1], the protein stability index is, setting by setting: (treatment: DMSO) 3.01 ± 0.38; (treatment: MLN4924 1 uM, 8 h) 2.98 ± 0.28.

The sequence QDAPLSDCTETIEGLELTEQTFSP [ADD1] registered a protein stability index (treatment: DMSO) of 5.46 ± 0.21 and a protein stability index (treatment: MLN4924 1 uM, 8 h) of 5.3 ± 0.23.

With QDDHDHKVQELMSTHELEKKELEE [MTUS2], the protein stability index is, setting by setting: (treatment: DMSO) 5.59 ± 0.29; (treatment: MLN4924 1 uM, 8 h) 5.59 ± 0.33.

On to QDLCCRTIVSCTPVHLVDKLPLPS [RAB40A], for which the protein stability index reads like this: (treatment: DMSO) 2.34 ± 0.26; (treatment: MLN4924 1 uM, 8 h) 2.39 ± 0.35.

Turning to QDTELPKAEECDTITLNCPRNSDM [EDARADD], the protein stability index (treatment: DMSO) came to 5.32 ± 0.29 and the protein stability index (treatment: MLN4924 1 uM, 8 h) is 5.42 ± 0.27.

Regarding QEGAASKVLGRLRALSDTTEELTV [SLC2A12], the protein stability index worked out at 4.46 ± 0.31 (treatment: DMSO) and 4.65 ± 0.37 (treatment: MLN4924 1 uM, 8 h).

Take QEGWIHHLARHAVACFLTRGDLWI [CRY1]: the protein stability index stood at 3.05 ± 0.48 (treatment: DMSO) and 2.89 ± 0.44 (treatment: MLN4924 1 uM, 8 h).

With QEVTEPAVVAVDRQAIFPDTWTLT [PXN], the protein stability index runs as follows: (treatment: DMSO) 4.06 ± 0.23; (treatment: MLN4924 1 uM, 8 h) 3.8 ± 0.36.

Sequence QFLKELLLKPHSYGRFIRWLNKEK [SPDEF] yielded a protein stability index (treatment: DMSO) of 2.28 ± 0.43 and a protein stability index (treatment: MLN4924 1 uM, 8 h) of 2.21 ± 0.25.

QFTKPNASLGDVQSGATISMPCST [SASS6]: the protein stability index reads like this: (treatment: DMSO) 4.14 ± 0.38; (treatment: MLN4924 1 uM, 8 h) 4.06 ± 0.69.

For the sequence QGASESQAPGEENLLGEAAGGQDM [HDAC6], the protein stability index came to 5.54 ± 0.22 (treatment: DMSO) and 5.45 ± 0.2 (treatment: MLN4924 1 uM, 8 h).

Turning to QGHPPSLFPPKAKSNQPKSLEDLI [ATE1], the protein stability index is, setting by setting: (treatment: DMSO) 4.25 ± 0.081; (treatment: MLN4924 1 uM, 8 h) 4.19 ± 0.16.

Consider QGTAEEDHVDLSLSCTLVPRSGEQ [CDKN1A], for which the protein stability index is, setting by setting: (treatment: DMSO) 5.19 ± 0.12; (treatment: MLN4924 1 uM, 8 h) 5.2 ± 0.28.

Turning to QHTPDQANSDRASIGRRRTELRRS [PLEKHN1], the protein stability index runs as follows: (treatment: DMSO) 4.95 ± 0.38; (treatment: MLN4924 1 uM, 8 h) 5.34 ± 0.19.

On to QIAQLEASLAAAKKQLADETLLKV [LMNB1], for which the protein stability index turned out to be 2.72 ± 0.65 (treatment: DMSO) and 2.8 ± 0.46 (treatment: MLN4924 1 uM, 8 h).

For QIHLDVDNDRTTPSDLDSTGNSLN [DLC1], the protein stability index runs as follows: (treatment: DMSO) 5.19 ± 0.25; (treatment: MLN4924 1 uM, 8 h) 5.28 ± 0.18.

Source of the values: the supplement of paper PMC10567573.
